Measurements taken from patent US20180095078.

Legend:
[1] = target: Hepatitis B surface antigen (HBsAg) (Hepatitis B virus) (UniProt P03138); assay: pulldown; conditions: magnetic bead pulldown with q-PCR; BD buffer, room temperature
[2] = target: HCV NS3 protein (Hepatitis C virus) (UniProt P27958); assay: pulldown; conditions: magnetic bead pulldown with q-PCR; BD buffer, room temperature
Chain of HCV NS3 protein (Hepatitis C virus) (P27958 1027-1657): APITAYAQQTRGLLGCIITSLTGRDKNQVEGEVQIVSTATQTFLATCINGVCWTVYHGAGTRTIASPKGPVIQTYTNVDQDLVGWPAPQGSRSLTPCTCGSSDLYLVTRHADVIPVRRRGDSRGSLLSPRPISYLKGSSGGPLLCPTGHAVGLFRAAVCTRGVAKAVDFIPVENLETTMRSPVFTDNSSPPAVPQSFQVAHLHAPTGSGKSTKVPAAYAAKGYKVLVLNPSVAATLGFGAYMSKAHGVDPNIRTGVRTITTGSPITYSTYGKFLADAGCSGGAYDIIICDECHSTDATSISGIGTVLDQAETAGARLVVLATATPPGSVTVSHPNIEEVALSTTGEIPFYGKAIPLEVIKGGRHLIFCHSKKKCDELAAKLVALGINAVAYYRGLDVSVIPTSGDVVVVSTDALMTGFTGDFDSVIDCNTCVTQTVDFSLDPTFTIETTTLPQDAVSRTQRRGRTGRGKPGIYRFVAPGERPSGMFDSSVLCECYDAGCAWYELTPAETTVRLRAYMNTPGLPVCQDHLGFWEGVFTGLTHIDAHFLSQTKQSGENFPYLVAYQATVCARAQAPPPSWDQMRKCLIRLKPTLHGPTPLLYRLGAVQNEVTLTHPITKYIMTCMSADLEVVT

Sequence: AGCAGCACAGAGGTCCCAACCGGAATCTGCACCTCGCGTGCTACCGTGAA [K2-4]
- Kd [1]: 31.4 nM

Sequence: AGCAGCACAGAGGTCCCCATGTCCACCTTTCTGTGGCGTGCTACCGTGAA [K3-1]
- Kd [2]: 15.9 nM

Sequence: AGCAGCACAGAGGTCCTGCATCACGAAGCCTGGCAGCGTGCTACCGTGAA [MP-1]
- Kd [1]: 28.3 nM
- Kd [2]: 23.3 nM
